# Results: CN114989291A (ZHEJIANG ANWEILUO DIAGNOSTIC TECH CO LTD, dated 2022)
# B1: 抗SARS-CoV-2全人源化单克隆抗体1B3 (antibody, V domains shown)
# VH: VQLVESGGGVVQPGRSLRLSCAASGFTFSSYAMHWVRQAPGKGLEWVAVISYDGSNKYYADSVKGRFTISRDNSKNTLYLQMNSLRAEDTAVYYCAKVAGGPYYYDSSGRDWYFDLWGRGTLVTVSA
# VL: DIQMTQSPSSLSASVGDRVSITCRASQSISSFLNWFQQKPGKAPNLLIYAASSLESGVPSRFSGSGSGTDFTLTISSLQPEDFATYYCQQSYSAPPTFGQGTRLEIKR
# How the values were obtained:
# Assay in all cases: cell-based or functional assay
# [1] = target: SARS-CoV-2 S蛋白, 突变株 B.1.351 (SARS-CoV-2)
# [2] = target: SARS-CoV-2 S蛋白, 突变株 B.1.617.2 (SARS-CoV-2)
# [3] = target: SARS-CoV-2 S蛋白, 突变株 B.1.1.7 (SARS-CoV-2)
# SARS-CoV-2 S蛋白, 突变株 P.1 = SARS-CoV-2 S蛋白, 突变株 P.1 (SARS-CoV-2)
# [4] = target: SARS-CoV-2 S蛋白, 突变株 B.1.525 (SARS-CoV-2)
binder,measurement,setting,value
B1,"EC50, 假病毒细胞模型中和活性 (luciferase, ACE2-293T细胞)",[1],2.05 µg/mL
same,"EC50, 假病毒细胞模型中和活性 (luciferase, ACE2-293T细胞)",[2],1.69 µg/mL
same,"EC50, 假病毒细胞模型中和活性 (luciferase, ACE2-293T细胞)",[3],2.51 µg/mL
same,"EC50, 假病毒细胞模型中和活性 (luciferase, ACE2-293T细胞)","SARS-CoV-2 S蛋白, 突变株 P.1",3.83 µg/mL
same,"EC50, 假病毒细胞模型中和活性 (luciferase, ACE2-293T细胞)",[4],1.7 µg/mL
